Reference: paper PMC6054930 (Frontiers in Immunology, 2018)

Molecular target: T1, hPD-L1-Fc (human, UniProt Q9NZQ7 19-238)
T1 construct: human programmed death-ligand 1 (PD-L1, CD274, B7-H1); also called programmed death-ligand 1; CD274; source: bought: tebu-bio/BPS Bioscience, #71104
Assay: ELISA; competitive: hPD-L1-Fc coated on the plate; test antibodies in presence of 1 µg/ml PD-1-Biotin or 0.5 µg/ml CD80-Biotin; detected with streptavidin-POD
Conditions: both partners purified

T1 sequence (Q9NZQ7 19-238): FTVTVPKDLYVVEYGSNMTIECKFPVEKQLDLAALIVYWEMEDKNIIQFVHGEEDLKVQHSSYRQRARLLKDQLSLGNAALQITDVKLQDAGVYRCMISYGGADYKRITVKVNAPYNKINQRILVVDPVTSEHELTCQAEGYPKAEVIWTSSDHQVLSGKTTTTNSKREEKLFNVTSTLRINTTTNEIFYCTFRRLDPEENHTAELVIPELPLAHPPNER

B1: CD80-Biotin (ligand, human, UniProt P33681 35-242, looked up)
chain: VIHVTKEVKEVATLSCGHNVSVEELAQTRIYWQKEKKMVLTMMSGDMNIWPEYKNRTIFDITNNLSIVILALRPSDEGTYECVVLKYEKDAFKREHLAEVTLSVKADFPTPSISDFEIPTSNIRRIICSTSGGFPEPHLSWLENGEELNAINTTVSQDPETELYAVSSKLDFNMTTNHSFMCLIKYGHLRVNQTFNWNTTKQEHFPDN
modifications: biotin
notes: The vendor's product may carry an Fc part; also called B7-1; soluble CD80; source: bought: tebu-bio/BPS Bioscience, #71114
binding result: binds
